Results from patent US20190359687A1.

Experiments:
[1] = target: Cynomolgus monkey glycophorin A on Cynomolgus monkey red blood cells (Cynomolgus monkey); assay: FACS, RBC Cy02
[2] = target: Rhesus monkey glycophorin A on Rhesus monkey red blood cells (Rhesus monkey); assay: FACS, RBC Rh01
[3] = target: Rhesus monkey glycophorin A on Rhesus monkey red blood cells (Rhesus monkey); assay: FACS, RBC Rh02
[4] = target: Cynomolgus monkey glycophorin A on Cynomolgus monkey red blood cells (Cynomolgus monkey); assay: FACS, RBC Cy01
[5] = target: Rhesus monkey glycophorin A on Rhesus monkey red blood cells (Rhesus monkey); assay: FACS, RBC Rh03
[6] = target: endogenous Cynomolgus monkey FVIII in whole blood (Cynomolgus monkey); assay: cell-based or functional assay
Sequence of endogenous Cynomolgus monkey FVIII in whole blood (Cynomolgus monkey) (chain, as listed by the source): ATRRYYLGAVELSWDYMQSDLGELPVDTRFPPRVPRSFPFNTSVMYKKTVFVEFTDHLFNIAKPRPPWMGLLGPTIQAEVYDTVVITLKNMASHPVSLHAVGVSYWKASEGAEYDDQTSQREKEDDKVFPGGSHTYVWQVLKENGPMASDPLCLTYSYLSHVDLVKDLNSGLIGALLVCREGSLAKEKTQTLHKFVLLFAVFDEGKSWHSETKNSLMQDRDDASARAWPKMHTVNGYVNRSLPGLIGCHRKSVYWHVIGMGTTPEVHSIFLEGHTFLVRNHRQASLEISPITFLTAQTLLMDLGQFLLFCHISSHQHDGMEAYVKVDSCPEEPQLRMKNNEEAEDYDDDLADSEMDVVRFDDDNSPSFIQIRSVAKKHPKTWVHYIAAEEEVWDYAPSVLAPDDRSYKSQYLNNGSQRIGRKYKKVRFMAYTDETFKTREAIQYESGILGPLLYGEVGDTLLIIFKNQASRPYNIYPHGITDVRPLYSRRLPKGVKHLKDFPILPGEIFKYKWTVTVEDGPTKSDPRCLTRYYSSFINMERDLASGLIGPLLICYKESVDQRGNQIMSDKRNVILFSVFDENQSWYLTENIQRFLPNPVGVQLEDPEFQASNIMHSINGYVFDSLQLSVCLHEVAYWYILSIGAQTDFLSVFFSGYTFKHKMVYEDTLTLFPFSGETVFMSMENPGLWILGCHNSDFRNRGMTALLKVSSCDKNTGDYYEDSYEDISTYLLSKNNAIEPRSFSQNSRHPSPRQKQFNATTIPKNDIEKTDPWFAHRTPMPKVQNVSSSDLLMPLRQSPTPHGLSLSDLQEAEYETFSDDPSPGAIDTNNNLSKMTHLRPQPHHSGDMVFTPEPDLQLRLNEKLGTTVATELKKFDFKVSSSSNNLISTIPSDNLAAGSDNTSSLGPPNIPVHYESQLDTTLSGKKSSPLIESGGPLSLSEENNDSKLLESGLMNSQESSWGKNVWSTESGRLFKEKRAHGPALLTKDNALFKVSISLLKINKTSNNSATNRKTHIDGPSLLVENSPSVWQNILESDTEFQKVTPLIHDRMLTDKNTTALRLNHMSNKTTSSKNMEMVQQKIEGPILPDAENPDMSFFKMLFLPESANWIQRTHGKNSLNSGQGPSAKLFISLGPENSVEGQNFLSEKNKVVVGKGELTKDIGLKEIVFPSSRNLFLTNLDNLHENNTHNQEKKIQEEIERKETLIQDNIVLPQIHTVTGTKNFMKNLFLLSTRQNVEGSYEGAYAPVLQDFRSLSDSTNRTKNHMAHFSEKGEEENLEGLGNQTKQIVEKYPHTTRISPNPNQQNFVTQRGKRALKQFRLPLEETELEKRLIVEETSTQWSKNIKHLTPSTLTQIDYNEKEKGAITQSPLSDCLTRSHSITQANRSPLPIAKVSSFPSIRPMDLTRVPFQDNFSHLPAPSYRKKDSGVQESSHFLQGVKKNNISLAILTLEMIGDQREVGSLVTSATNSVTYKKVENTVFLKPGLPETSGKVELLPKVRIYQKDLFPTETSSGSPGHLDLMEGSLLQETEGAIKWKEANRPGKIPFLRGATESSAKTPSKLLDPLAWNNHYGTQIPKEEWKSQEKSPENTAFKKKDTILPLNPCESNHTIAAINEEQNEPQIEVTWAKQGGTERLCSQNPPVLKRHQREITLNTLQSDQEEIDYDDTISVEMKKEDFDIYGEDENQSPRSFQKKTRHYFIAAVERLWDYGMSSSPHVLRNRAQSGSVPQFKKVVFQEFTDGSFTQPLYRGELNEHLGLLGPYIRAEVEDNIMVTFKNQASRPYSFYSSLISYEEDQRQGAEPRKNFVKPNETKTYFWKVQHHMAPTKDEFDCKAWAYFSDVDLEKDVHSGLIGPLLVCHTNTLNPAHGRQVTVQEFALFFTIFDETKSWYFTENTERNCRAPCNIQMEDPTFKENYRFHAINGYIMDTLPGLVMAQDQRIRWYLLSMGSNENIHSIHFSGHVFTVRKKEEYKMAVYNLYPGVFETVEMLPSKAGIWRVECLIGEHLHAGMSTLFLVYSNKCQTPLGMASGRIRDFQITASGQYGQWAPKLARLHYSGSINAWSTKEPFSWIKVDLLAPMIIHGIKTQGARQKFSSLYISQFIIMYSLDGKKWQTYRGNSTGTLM

Sequence of Rhesus monkey glycophorin A on Rhesus monkey red blood cells (Rhesus monkey) (chain, as listed by the source, form in doubt): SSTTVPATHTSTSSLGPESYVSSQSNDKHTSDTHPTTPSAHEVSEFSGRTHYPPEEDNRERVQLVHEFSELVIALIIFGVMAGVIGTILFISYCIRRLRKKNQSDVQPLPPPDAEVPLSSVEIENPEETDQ

Substance | fluorescence intensity [1] | fluorescence intensity [2] | fluorescence intensity [3] | fluorescence intensity [4] | fluorescence intensity [5] | Hemochron aPTT clotting time, Cyno whole blood [6] [s]
Hu igG isotype (antibody) | 3 | 2 | 2 | 2 | 2 | –
anti-FVIII neutralizing monoclonal antibody BO2C11 | – | – | – | – | – | 180
